Paper PMC5063001 (Nucleic Acids Research, 2016)

Legend:
crystal structure = target: the molecule itself; test: crystal structure
FLI1 DBD (276-375) = target: T1, FLI1 DBD (276-375) (UniProt Q01543 276-375); test: X-ray crystallography
T1 sequence: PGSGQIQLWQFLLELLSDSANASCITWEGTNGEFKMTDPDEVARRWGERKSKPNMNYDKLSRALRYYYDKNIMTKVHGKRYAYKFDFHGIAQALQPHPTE

FLI1 DBD (259-399) = target: T2, FLI1 DBD (259-399) (UniProt Q01543 259-399); test: fluorescence anisotropy
T2 sequence: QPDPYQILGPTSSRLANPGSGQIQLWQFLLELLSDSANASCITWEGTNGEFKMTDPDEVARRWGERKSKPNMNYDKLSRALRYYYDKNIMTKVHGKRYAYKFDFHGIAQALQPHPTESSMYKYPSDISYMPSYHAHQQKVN

[1] = target: T3, 15N-labeled FLI1 DBD (NMR) (UniProt Q01543 259-399); test: NMR
T3 sequence: T2 sequence

B1: DNA binding domain of FLI1 (residues 276-375) (domain or fragment)
chain: T1 sequence
binding result (crystal structure): binds

B2: 11-mer GACCGGAAGTG (dsDNA)
DNA 1: GACCGGAAGTG
DNA 2: CACTTCCGGTC
binding result (FLI1 DBD (276-375)): binds

B3: AA(GGAA)6 (dsDNA)
DNA 1: AAGGAAGGAAGGAAGGAAGGAAGGAA
DNA 2: TTCCTTCCTTCCTTCCTTCCTTCCTT
binding result (FLI1 DBD (259-399)): binds

B4: 12-mer TTGAAGGAAGAG (dsDNA)
DNA 1: TTGAAGGAAGAG
DNA 2: CTCTTCCTTCAA
binding result [1]: binds
